Results on six molecules are retold here after patent US20240228562A1, “NOVEL LIPOCALIN MUTEINS SPECIFIC FOR CONNECTIVE TISSUE GROWTH FACTOR (CTGF)” (PIERIS PHARMACEUTICALS GMBH, priority 2021, published 2024).

The target of data set [1] is T1, Human CTGF with a human IgG1 Fc Tag (Homo sapiens, UniProt P29279, H83D).
T1 construct: purchased Creative Biomart
The data set can be described thus: SPR epitope analysis (simultaneous binding). The note with it: for Simultaneous binding with SEQ ID NO: 7 / Simultaneous binding with SEQ ID NO: 9 / Simultaneous binding with SEQ ID NO: 25 / Simultaneous binding with SEQ ID NO: 29 / Simultaneous binding with SEQ ID NO: 60 and 61 (control antibody): SPR, mixed and injected simultaneously at 750 nM or 1000 nM. The procedure: Surface plasmon resonance (SPR) was used to analyze the epitopes and determine simultaneous binding of different lipocalin muteins. Human CTGF with a human IgG1 Fc Tag was directly immobilized to a CM5 Chip (Creative Biomart, 10 μg/mL in 10 mM sodium acetate pH 4.5) until an immobilization level of 470-630 resonance units was achieved. The reference channel was activated/deactivated. […] As control, single lipocalin muteins were injected and the resulting signal of single and mixtures was compared at the end of the injection. The chip was regenerated with 3 M MgCl2 and Glycine-HCl pH1.5 for each 60 s at a flowrate of 15 μL/min.
“Yes” means simultaneous binding is possible, “no” stands for same or overlapping epitope, “n.t.” stands for not tested.

The target of data set [2] is T2, CTGF (Homo sapiens, UniProt P29279).
T2 sequence (P29279 27-349): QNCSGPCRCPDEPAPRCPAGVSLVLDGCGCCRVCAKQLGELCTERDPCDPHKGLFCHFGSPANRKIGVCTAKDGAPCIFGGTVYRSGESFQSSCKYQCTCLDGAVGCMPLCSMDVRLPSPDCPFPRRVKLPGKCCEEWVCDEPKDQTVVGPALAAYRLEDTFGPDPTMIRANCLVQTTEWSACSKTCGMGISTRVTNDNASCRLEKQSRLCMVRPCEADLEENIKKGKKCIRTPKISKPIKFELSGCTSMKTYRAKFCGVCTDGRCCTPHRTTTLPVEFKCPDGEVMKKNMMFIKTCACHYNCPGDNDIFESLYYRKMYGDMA
The data set can be described thus: Specificity ELISA (CCN proteins), human CTGF. The format is binding. The settings on record: coated 1 μg/ml, muteins from 1000 nM. The procedure:
(§1) Binding of muteins to closely related proteins of CTGF was tested by an ELISA assay. In detail, a 384-well plate suitable for fluorescence measurements (Greiner FLUOTRAC™ 600, black flat bottom, high-binding) was coated with 20 μl of human CTGF or the other members of the CCN protein family at a concentration of 1 μg/ml in PBS over night at 4° C. After washing with PBS with 0.05% Tween 20, wells were blocked with 100 μl blocking buffer containing 0.1% Tween 20 and 2% BSA (PBS-T/BSA) for 1 h at room temperature. 20 μl of serially diluted muteins starting at 1000 nM were incubated in PBS-T/BSA for 1 h at room temperature (RT).
(§2) The residual supernatants were discarded and 20 μl HRP-labeled anti-NGAL or anti-Strep-Tag antibody was added at a predetermined optimal concentration in PBS-T/BSA and incubated for 1 h at RT. After washing, 20 μl fluorogenic HRP substrate (QuantaBlu, Thermo) was added to each well, and the reaction was allowed to proceed for 2 to 60 minutes. The fluorescence intensity of every well on the plate was read using a fluorescence microplate reader (Tecan). When the signal for human CTGF approached saturation, the cross reactivity to the other proteins was assessed.
On the technique in general: In an ELISA, binding on a coated surface is turned into a signal by an enzyme label.

Data set [3] deals with T3, huWISP-2 (Homo sapiens, UniProt O76076).
T3 sequence (O76076 24-250): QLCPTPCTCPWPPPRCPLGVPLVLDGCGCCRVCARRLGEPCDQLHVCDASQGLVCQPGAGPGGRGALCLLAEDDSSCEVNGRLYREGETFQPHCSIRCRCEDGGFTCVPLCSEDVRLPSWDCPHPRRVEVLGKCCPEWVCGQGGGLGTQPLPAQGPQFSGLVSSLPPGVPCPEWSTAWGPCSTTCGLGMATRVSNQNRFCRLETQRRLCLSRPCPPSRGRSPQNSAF
The data set can be described thus: Specificity ELISA (CCN proteins), huWISP-2. The note with it: coated 1 μg/ml; assessed when human CTGF signal approached saturation. In kind it is binding. The procedure:
as §1, §2

The target of data set [4] is T4, huWISP-1 (Homo sapiens, UniProt O95388).
T4 sequence (O95388 23-367): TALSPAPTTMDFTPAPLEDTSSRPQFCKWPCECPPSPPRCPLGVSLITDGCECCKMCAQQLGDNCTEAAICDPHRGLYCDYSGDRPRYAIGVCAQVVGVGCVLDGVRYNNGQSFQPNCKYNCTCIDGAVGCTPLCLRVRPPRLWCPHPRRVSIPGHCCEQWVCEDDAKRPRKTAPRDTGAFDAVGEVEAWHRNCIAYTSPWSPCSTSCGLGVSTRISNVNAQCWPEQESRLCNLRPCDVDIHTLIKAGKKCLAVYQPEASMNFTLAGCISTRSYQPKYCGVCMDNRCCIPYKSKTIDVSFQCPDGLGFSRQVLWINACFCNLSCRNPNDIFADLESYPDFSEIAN
The data set can be described thus: Specificity ELISA (CCN proteins), huWISP-1. The settings on record: coated 1 μg/ml; assessed when human CTGF signal approached saturation. In kind it is binding. The procedure: as §1, §2

The nature of data set [5]: Thermal stability assessment by nanoDSC. The settings on record: 1 mg/mL in PBS, scan 25-100° C. at 1° C./min; for TM: major transition. The format is physicochemical. In short, it runs like this: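 CTGF-specific lipocalin muteins at 1 mg/mL in PBS scanned from 25 to 100° C at 1° C/min by capillary nano-DSC. Where several transitions occur, the Tm of the major unfolding event is reported, along with onset temperature. Some muteins were expressed in E. coli, others in CHO cells.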

Data set [6] has as its target T5, huNOV (Homo sapiens, UniProt P48745).
T5 sequence (P48745 32-357): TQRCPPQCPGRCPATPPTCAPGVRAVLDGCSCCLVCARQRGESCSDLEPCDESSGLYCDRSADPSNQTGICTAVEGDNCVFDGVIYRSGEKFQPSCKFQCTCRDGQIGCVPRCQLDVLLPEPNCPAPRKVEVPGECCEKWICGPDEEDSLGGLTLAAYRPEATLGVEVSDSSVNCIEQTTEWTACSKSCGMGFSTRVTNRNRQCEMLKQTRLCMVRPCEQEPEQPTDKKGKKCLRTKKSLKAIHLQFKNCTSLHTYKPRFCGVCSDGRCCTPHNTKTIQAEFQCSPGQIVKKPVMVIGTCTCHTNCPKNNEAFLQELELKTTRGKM
The data set can be described thus: Specificity ELISA (CCN proteins), huNOV. The format is binding. The note with it: coated 1 μg/ml; assessed when human CTGF signal approached saturation. The procedure: as §1, §2

T1 sequence (P29279 with tags, fused parts or gaps H83D): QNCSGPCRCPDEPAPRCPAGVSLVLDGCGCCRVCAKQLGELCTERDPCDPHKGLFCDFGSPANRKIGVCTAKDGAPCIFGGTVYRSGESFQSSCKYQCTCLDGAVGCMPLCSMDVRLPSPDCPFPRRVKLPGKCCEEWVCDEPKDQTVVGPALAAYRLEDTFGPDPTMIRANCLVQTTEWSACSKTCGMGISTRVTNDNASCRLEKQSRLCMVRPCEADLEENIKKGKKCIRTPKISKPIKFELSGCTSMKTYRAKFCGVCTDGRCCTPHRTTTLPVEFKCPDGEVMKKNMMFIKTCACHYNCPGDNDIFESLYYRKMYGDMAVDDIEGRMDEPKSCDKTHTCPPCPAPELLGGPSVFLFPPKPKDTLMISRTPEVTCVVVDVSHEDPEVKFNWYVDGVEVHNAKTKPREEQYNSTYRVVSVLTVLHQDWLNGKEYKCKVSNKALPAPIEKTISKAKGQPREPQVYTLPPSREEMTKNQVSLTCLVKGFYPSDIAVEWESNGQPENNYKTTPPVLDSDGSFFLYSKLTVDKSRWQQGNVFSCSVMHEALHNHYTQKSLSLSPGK

B1: SEQ ID NO: 25: parent CTGF-binding hNGAL lipocalin mutein (protein)
chain: QDSTSDLIPAPPLSKVPLQQNFQDNQFHGKWYVVGMAGNFRLREDKDPSKMGATIYELKEDKSYNVTQVQFDDKKCLYVIETFVPGSQPGEFTLGAIKSFPGFTSQLVRVVSTNYNQHAMVFFKKVYQNREVFWITLYGRTKELTSELKENFIRFSKSLGLPENHIVFPVPIDQCIDG
modifications: lipocalin mutein
Take B1: in data set [1], the “Simultaneous binding with SEQ ID NO: 7” value is reported as “yes”, the “Simultaneous binding with SEQ ID NO: 9” value was “yes”, the “Simultaneous binding with SEQ ID NO: 25” value is given as “no” and the “Simultaneous binding with SEQ ID NO: 29” value is reported as “no”. In addition, the “Simultaneous binding with SEQ ID NO: 60 and 61 (control antibody)” value in data set [1] is reported as “yes”. In addition, the “ELISA binding to HUMAN CTGF” value in data set [2] is listed as “Binding”. Further, the “ELISA binding to huWISP-2” value in data set [3] is “No binding”. Moreover, the “ELISA binding to huWISP-1” value in data set [4] is “No binding”. The same molecule showed a TM in data set [5] of 66 °C. The “ELISA binding to huNOV” value in data set [6] is “No binding”.

B2: SEQ ID NO: 74: fusion protein comprising two CTGF-binding lipocalin muteins (protein)
chain: QDSTSDLIPAPPLSKVPLQQNFQDNQFQGKWYVVGLAGNAILREDKQPAKMFATIYELKEDKSYDVTSVRFEAKSCKYTIKTFVPGSQPGEFTAGYIKSAPGQTSTLVRVVSTNYNQHAMVFFKHVTQNREIFVITLYGRTKELTSELKENFIRFSKSLGLPENHIVFPVPIDQCIDGGGGGSGGGGSGGGGSQDSTSDLIPAPPLSKVPLQQNFQDNQFQGKWYVVGWAGNVKLREDKQPQKMSATIYELKEDKSYDVTEVVFEQKKCHYIIKTFVPGSQPGEFTAGDIKSPPGYTSSLVRVVSTNYNQHAMVFFKKVSQNREFFWITLYGRTKELTSELKENFIRFSKSLGLPENHIVFPVPIDQCIDG
modifications: fusion protein
Consider B2, for which, in data set [2], the “ELISA binding to HUMAN CTGF” value was “Binding”. The “ELISA binding to huWISP-2” value in data set [3] is “No binding”. For the same molecule, in data set [4], the “ELISA binding to huWISP-1” value is recorded as “No binding”. Besides, in data set [5], the “ONSET MELTING” value stood at 62 °C and the TM is 72 °C. In data set [6], the “ELISA binding to huNOV” value is recorded as “No binding”.

B3: SEQ ID NO: 29: parent CTGF-binding hNGAL lipocalin mutein (protein)
chain: QDSTSDLIPAPPLSKVPLQQNFQDNQFHGKWYVVGWAGNIKLREDKDPFKMSATIYELKEDKSYNVTEVVFEQKKCHYIIKTFVPGSQPGEFTLGDIKSPPGETSSLVRVVSTNYNQHAMVFFKKVFQNREFFWITLYGRTKELTSELKENFIRFSKSLGLPENHIVFPVPIDQCIDG
modifications: lipocalin mutein
Regarding B3, in data set [1], the “Simultaneous binding with SEQ ID NO: 7” value is listed as “yes”, the “Simultaneous binding with SEQ ID NO: 9” value is “yes”, the “Simultaneous binding with SEQ ID NO: 25” value is recorded as “no” and the “Simultaneous binding with SEQ ID NO: 29” value is given as “no”. Further, the “Simultaneous binding with SEQ ID NO: 60 and 61 (control antibody)” value in data set [1] is recorded as “yes”. Further, the “ELISA binding to HUMAN CTGF” value in data set [2] is “Binding”. The “ELISA binding to huWISP-2” value in data set [3] is “No binding”. Also, in data set [4], the “ELISA binding to huWISP-1” value is “No binding”. Also, the TM in data set [5] came to 76 °C. Also, the “ELISA binding to huNOV” value in data set [6] is reported as “No binding”.

B4: SEQ ID NO: 23: optimized CTGF-binding hNGAL lipocalin mutein (protein)
chain: QDSTSDLIPAPPLSKVPLQQNFQDNQFQGKWYVVGVAGNAILRPDKQPAKMFATIYELKEDKSYDVTSVRFEAKSCKYTIKTFVPGSQPGEFTSGQIKSAPGQTSTLVRVVSTNYNQHAMVFFKHVSQNREIFVITLYGRTKELTSELKENFIRFSKSLGLPENHIVFPVPIDQCIDG
modifications: lipocalin mutein
Consider B4, for which the “Epitope overlap with anti-CTGF antibody of SEQ ID NOs: 60 and 61” value in data set [1] is recorded as “overlapped”. The “ELISA binding to HUMAN CTGF” value in data set [2] is “Binding”. Moreover, the “ELISA binding to huWISP-2” value in data set [3] is given as “No binding”. Further, the “ELISA binding to huWISP-1” value in data set [4] is “No binding”. In data set [5], the “ONSET MELTING” value came to 55 °C and the TM came out at 71 °C. Further, the “ELISA binding to huNOV” value in data set [6] was “No binding”.

B5: SEQ ID NO: 9: parent CTGF-binding hNGAL lipocalin mutein (protein)
chain: QDSTSDLIPAPPLSKVPLQQNFQDNQFHGKWYVVGLAGNKILRIDKQPAKMFATIYELKEDKSYDVTSVRFEARSCSYTIKTFVPGSQPGEFTAGNIKSAPGQTSTLVRVVSTNYNQHAMVFFKHVSQNRETFVITLYGRTKELTSELKENFIRFSKSLGLPENHIVFPVPIDQCIDG
modifications: lipocalin mutein
B5: in data set [1], the “Simultaneous binding with SEQ ID NO: 7” value is “no”, the “Simultaneous binding with SEQ ID NO: 9” value is “no”, the “Simultaneous binding with SEQ ID NO: 25” value was “yes” and the “Simultaneous binding with SEQ ID NO: 29” value is “yes”. The “Simultaneous binding with SEQ ID NO: 60 and 61 (control antibody)” value in data set [1] is “no”. For the same molecule, the “ELISA binding to HUMAN CTGF” value in data set [2] was “Binding”. In data set [3], the “ELISA binding to huWISP-2” value is reported as “No binding”. Further, the “ELISA binding to huWISP-1” value in data set [4] is on record as “No binding”. Besides, the TM in data set [5] came out at 64 °C. In addition, the “ELISA binding to huNOV” value in data set [6] is recorded as “No binding”.

B6: SEQ ID NO: 15: optimized CTGF-binding hNGAL lipocalin mutein (protein)
chain: QDSTSDLIPAPPLSKVPLQQNFQDNQFQGKWYVVGLAGNAILREDKQPAKMFATIYELKEDKSYDVTSVRFEAKSCKYTIKTFVPGSQPGEFTAGYIKSAPGQTSTLVRVVSTNYNQHAMVFFKHVTQNREIFVITLYGRTKELTSELKENFIRFSKSLGLPENHIVFPVPIDQCIDG
modifications: lipocalin mutein
With B6, the “ELISA binding to HUMAN CTGF” value in data set [2] is given as “Binding”. In data set [3], the “ELISA binding to huWISP-2” value is listed as “No binding”. The “ELISA binding to huWISP-1” value in data set [4] is listed as “No binding”. For the same molecule, in data set [5], the “ONSET MELTING” value is 59 °C and the TM was found to be 73 °C. Also, in data set [6], the “ELISA binding to huNOV” value is recorded as “No binding”.
